Measurements published in PMC5767221.

Target: mGlu5-NanoLuc (UniProt P31424)
Assay: FRET or BRET; intermolecular BRET imaging in live hippocampal neurons expressing mGlu5-NanoLuc (donor) and Venus-Homer (acceptor); recorded for 30 min in soma and dendritic spines; control KCl 3 mM, and before and during depolarization with KCl 55 mM

Chain of UniProt P31424 (P31424 21-1203): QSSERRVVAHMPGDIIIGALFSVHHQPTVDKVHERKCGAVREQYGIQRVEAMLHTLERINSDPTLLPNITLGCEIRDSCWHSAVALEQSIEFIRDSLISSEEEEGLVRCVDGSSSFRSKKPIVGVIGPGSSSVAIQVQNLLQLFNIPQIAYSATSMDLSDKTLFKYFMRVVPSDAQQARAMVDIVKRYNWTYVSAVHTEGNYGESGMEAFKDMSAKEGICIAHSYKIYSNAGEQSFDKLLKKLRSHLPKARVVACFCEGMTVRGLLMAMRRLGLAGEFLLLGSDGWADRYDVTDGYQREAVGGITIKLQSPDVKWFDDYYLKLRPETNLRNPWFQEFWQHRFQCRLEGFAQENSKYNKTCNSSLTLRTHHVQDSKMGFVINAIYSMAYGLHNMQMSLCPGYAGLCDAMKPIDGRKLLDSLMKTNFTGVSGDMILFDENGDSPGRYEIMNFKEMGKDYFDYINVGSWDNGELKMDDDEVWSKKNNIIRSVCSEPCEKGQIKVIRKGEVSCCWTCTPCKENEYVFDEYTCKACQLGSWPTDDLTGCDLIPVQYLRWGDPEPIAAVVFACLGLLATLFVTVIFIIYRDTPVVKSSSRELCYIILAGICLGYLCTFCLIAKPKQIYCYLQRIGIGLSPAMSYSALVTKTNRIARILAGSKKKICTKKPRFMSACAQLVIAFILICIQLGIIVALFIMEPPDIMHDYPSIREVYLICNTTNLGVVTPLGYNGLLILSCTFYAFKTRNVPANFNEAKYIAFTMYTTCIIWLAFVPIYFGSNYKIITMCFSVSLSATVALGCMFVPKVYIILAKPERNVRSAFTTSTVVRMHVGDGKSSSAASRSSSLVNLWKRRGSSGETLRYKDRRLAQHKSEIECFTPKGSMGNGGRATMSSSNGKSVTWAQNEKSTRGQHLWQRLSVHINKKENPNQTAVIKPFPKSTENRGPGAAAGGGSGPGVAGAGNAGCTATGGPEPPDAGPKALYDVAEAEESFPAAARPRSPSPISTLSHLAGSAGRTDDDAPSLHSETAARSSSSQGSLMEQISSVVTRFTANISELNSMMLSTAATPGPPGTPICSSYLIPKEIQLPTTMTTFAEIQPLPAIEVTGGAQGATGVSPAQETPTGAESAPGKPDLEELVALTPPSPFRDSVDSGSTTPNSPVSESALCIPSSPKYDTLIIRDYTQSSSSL

drop of BRET signal with KCl 55 mM against before depolarization (soma): 15% | drop of BRET signal with KCl 55 mM against before depolarization (spines): 16%
Substance: Venus-Homer (from UniProt Q9Z214 1-366) (natural protein)
